The target of this test is ribosomal protein L2 (E. coli, UniProt P60422 1-273). The experiment in a line: ELISA. A general note: ELISA stands for enzyme-linked immunosorbent assay.

This note sets out measurements from paper PMC3105425 (Nucleic Acids Research, 2011).

B1: DnaAΔ220-294 lacking residues 220–294 (natural protein)
chain: MSLSLWQQCLARLQDELPATEFSMWIRPLQAELSDNTLALYAPNRFVLDWVRDKYLNNINGLLTSFCGADAPQLRFEVGTKPVTQTPQAAVTSNVAAPAQVAQTQPQRAAPSTRSGWDNVPAPAEPTYRSNVNVKHTFDNFVEGKSNQLARAAARQVADNPGGAYNPLFLYGGTGLGKTHLLHAVGNGIMARKPNAKVVYMHSERFVQDMVKALQNNAIEPPELETRVAILMKKADENDIRLPGEVAFFIAKRLRSNVRELEGALNRVIANANFTGRAITIDFVREALRDLLALQEKLVTIDNIQKTVAEYYKIKVADLLSKRRSRSVARPRQMAMALAKELTNHSLPEIGDAFGGRDHTTVLHACRKIEQLREESHDIKEDFSNLIRTLSS
In the case of B1, the binding result is on record as “binds”.

B2: DnaA protein (natural protein)
chain: MSLSLWQQCLARLQDELPATEFSMWIRPLQAELSDNTLALYAPNRFVLDWVRDKYLNNINGLLTSFCGADAPQLRFEVGTKPVTQTPQAAVTSNVAAPAQVAQTQPQRAAPSTRSGWDNVPAPAEPTYRSNVNVKHTFDNFVEGKSNQLARAAARQVADNPGGAYNPLFLYGGTGLGKTHLLHAVGNGIMARKPNAKVVYMHSERFVQDMVKALQNNAIEEFKRYYRSVDALLIDDIQFFANKERSQEEFFHTFNALLEGNQQIILTSDRYPKEINGVEDRLKSRFGWGLTVAIEPPELETRVAILMKKADENDIRLPGEVAFFIAKRLRSNVRELEGALNRVIANANFTGRAITIDFVREALRDLLALQEKLVTIDNIQKTVAEYYKIKVADLLSKRRSRSVARPRQMAMALAKELTNHSLPEIGDAFGGRDHTTVLHACRKIEQLREESHDIKEDFSNLIRTLSS
Take B2: the binding result is “binds”.

B3: DnaAΔ129 lacking the N-terminal 129 residues (domain or fragment)
chain: SNVNVKHTFDNFVEGKSNQLARAAARQVADNPGGAYNPLFLYGGTGLGKTHLLHAVGNGIMARKPNAKVVYMHSERFVQDMVKALQNNAIEEFKRYYRSVDALLIDDIQFFANKERSQEEFFHTFNALLEGNQQIILTSDRYPKEINGVEDRLKSRFGWGLTVAIEPPELETRVAILMKKADENDIRLPGEVAFFIAKRLRSNVRELEGALNRVIANANFTGRAITIDFVREALRDLLALQEKLVTIDNIQKTVAEYYKIKVADLLSKRRSRSVARPRQMAMALAKELTNHSLPEIGDAFGGRDHTTVLHACRKIEQLREESHDIKEDFSNLIRTLSS
As to B3, the “fold reduction of the interaction against wild-type DnaA” value is roughly 4 fold.
